According to patent publication US20240376455:

Experiments:
Experiment in all cases: cleavage_in_vitro
[1] = system: T1, LPG10146 (Bifidobacterium thermacidophilum); settings: PAM SEQ ID 79
T1 sequence: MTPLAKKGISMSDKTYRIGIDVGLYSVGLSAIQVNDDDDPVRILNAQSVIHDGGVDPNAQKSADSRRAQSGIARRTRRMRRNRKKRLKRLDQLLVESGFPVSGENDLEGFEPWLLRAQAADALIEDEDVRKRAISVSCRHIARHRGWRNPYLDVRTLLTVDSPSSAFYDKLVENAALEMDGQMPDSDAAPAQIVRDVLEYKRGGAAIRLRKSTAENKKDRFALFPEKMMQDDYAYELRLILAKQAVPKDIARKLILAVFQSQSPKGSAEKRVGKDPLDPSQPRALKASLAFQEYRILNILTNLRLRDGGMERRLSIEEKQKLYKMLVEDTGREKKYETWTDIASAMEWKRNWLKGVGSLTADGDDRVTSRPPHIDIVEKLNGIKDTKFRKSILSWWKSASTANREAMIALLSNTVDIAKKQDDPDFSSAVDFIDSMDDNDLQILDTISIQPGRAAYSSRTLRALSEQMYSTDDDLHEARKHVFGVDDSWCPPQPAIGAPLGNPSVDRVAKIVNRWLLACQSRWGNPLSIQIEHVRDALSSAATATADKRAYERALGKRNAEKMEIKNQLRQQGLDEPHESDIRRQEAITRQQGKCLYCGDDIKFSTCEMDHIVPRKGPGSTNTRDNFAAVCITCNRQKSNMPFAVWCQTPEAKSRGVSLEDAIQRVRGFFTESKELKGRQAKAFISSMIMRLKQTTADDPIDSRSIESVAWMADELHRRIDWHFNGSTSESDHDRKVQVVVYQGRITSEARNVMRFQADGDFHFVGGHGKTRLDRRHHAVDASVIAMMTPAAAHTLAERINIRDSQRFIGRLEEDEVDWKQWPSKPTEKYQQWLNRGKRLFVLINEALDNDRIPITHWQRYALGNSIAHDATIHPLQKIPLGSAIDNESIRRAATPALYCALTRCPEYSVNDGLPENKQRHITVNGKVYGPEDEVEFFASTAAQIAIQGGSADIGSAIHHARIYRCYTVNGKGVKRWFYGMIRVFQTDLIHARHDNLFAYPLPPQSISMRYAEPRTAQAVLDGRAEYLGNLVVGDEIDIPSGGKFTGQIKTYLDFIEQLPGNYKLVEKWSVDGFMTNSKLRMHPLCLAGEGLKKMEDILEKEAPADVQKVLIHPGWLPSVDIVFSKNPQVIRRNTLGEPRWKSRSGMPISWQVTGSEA

[2] = system: T2, LPG10138 (Bacillus megaterium)
T2 sequence: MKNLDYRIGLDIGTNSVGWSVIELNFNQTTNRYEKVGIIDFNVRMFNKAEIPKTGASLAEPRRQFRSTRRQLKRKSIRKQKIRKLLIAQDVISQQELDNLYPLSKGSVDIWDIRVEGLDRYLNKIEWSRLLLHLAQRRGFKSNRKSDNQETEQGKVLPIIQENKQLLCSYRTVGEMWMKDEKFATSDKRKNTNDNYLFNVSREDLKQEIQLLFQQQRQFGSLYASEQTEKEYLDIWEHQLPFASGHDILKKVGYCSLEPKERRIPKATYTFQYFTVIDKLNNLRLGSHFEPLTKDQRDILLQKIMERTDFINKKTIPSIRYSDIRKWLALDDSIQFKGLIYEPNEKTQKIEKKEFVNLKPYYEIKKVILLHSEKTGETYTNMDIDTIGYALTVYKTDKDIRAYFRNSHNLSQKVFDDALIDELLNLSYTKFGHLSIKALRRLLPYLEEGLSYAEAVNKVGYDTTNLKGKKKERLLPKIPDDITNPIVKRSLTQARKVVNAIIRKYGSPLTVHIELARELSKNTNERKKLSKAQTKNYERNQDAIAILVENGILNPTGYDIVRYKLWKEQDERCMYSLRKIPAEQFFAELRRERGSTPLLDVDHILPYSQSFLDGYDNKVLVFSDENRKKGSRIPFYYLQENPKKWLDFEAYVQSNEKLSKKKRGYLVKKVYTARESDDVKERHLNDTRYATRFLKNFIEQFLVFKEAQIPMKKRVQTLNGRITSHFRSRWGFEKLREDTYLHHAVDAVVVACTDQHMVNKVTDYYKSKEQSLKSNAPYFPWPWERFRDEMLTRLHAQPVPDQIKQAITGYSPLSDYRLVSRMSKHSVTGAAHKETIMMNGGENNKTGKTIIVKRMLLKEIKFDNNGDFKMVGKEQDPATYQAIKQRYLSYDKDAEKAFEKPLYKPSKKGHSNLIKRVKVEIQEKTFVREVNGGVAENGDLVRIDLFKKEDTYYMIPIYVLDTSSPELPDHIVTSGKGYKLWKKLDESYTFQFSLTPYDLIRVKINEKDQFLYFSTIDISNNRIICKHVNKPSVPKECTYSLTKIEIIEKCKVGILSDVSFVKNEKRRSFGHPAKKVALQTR

[3] = system: T3, LPG10136 (Bacillus endophyticus); settings: PAM NNNNCC
T3 sequence: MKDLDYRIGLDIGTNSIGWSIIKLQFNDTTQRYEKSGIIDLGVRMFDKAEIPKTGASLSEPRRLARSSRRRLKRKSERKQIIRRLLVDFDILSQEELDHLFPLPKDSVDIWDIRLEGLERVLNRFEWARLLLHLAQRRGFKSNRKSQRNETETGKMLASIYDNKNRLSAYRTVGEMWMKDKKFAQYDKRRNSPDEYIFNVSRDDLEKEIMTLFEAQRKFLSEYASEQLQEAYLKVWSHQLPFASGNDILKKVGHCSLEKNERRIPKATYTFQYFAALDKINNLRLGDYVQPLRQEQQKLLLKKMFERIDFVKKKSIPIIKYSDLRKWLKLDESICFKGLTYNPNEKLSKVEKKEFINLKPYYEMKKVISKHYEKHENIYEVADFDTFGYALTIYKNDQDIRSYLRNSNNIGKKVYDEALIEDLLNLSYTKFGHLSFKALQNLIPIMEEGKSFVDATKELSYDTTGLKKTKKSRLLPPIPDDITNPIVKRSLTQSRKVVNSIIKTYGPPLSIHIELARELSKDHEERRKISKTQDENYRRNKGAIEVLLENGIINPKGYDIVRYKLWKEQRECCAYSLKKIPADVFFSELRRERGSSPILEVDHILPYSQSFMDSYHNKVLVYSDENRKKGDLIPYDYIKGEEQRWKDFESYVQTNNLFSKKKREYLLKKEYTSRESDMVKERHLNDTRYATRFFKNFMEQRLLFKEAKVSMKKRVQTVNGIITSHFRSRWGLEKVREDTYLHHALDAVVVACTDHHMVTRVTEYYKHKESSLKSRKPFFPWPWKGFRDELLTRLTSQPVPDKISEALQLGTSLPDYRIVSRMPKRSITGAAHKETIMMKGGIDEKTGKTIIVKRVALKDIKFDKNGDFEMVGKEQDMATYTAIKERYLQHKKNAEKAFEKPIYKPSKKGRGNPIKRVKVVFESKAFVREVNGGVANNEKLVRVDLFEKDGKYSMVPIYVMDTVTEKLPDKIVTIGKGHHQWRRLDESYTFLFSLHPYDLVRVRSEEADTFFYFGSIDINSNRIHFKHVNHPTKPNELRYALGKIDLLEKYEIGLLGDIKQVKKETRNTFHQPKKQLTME

Sequence: GCUGAGAAUUAGCAUCCUUCAAAGGAAGAAGCUAAUUCUCAGUAAGUACAGCAAUUAAUAGCUGUAUCUGAAUGCUAAGCGGUUAGCCGCAGGGGAGAGCUUCGGCUCUCCCCGUUCUUUU / GATATAGACGTTGTGGCTGTTGTAGTAGGAAACC / GGTTTCCTACTACAACAGCCACAACGTCTATATC [LPG10146 sgRNA L2 ; Library 2 target AGGAAACC]
- activity (% target strand cleaved) [1]: 48.9

Sequence: GCUGAGAAUUAGCAUCCUUCAAAGGAAGAAGCUAAUUCUCAGUAAGUACAGCAAUUAAUAGCUGUAUCUGAAUGCUAAGCGGUUAGCCGCAGGGGAGAGCUUCGGCUCUCCCCGUUCUUUU / GATATAGACGTTGTGGCTGTTGTAGTGAGTAACC / GGTTACTCACTACAACAGCCACAACGTCTATATC [LPG10146 sgRNA L2 ; Library 2 target GAGTAACC]
- activity (% target strand cleaved) [1]: 57.7

Sequence: GCUGAGAAUUAGCAUCCUUCAAAGGAAGAAGCUAAUUCUCAGUAAGUACAGCAAUUAAUAGCUGUAUCUGAAUGCUAAGCGGUUAGCCGCAGGGGAGAGCUUCGGCUCUCCCCGUUCUUUU / GGACAGCAGCTTCCTATATCTCGTACGGATAACC / GGTTATCCGTACGAGATATAGGAAGCTGCTGTCC [LPG10146 sgRNA L1 ; Library 1 target GGATAACC]
- activity (% target strand cleaved) [1]: 0

Sequence: GUCAUAGUCCCAUCAUAUCCAUUGCAAAGGCAAUGGAUAUGAUGUUUCUAUGAUAAGGGCUCUCUAAGAGAGACCUGUGGCGUUGGGGAUCGCCUGCCCGUUUCGACGGGUGUCUCCCCAUUU / GATATAGACGTTGTGGCTGTTGTAGTAGGAATTC / GAATTCCTACTACAACAGCCACAACGTCTATATC [LPG10138 sgRNA L2 ; Library 2 target AGGAATTC]
- activity (% target strand cleaved) ([2]; PAM context AGGAATTC): 0

Sequence: GUCAUAGUCCCAUCAUAUCCAUUGCAAAGGCAAUGGAUAUGAUGUUUCUAUGAUAAGGGCUCUCUAAGAGAGACCUGUGGCGUUGGGGAUCGCCUGCCCGUUUCGACGGGUGUCUCCCCAUUU / GATATAGACGTTGTGGCTGTTGTAGTAGGACTTC / GAAGTCCTACTACAACAGCCACAACGTCTATATC [LPG10138 sgRNA L2 ; Library 2 target AGGACTTC]
- activity (% target strand cleaved) ([2]; PAM SEQ ID 75): 18

Sequence: GUCAUAGUCCCAUCAUAUCCAUUGCAAAGGCAAUGGAUAUGAUGUUUCUAUGAUAAGGGCUCUCUAAGAGAGACCUGUGGCGUUGGGGAUCGCCUGCCCGUUUCGACGGGUGUCUCCCCAUUU / GGACAGCAGCTTCCTATATCTCGTACAGGACTTC / GAAGTCCTGTACGAGATATAGGAAGCTGCTGTCC [LPG10138 sgRNA L1 ; Library 1 target AGGACTTC]
- activity (% target strand cleaved) ([2]; PAM SEQ ID 75): 5.5

Sequence: GUCAUAGUUCCACUAAAGCCAUUAAAGAAUGGCUUUGAUGUUUCUAUGAUAAGGGUUUCGACCCGUGGCGUUGGGGAUCGCCUGCCCAUUUCGAUGGGCGUCUCCCCAUUU / GATATAGACGTTGTGGCTGTTGTAGTAGGACCTC / GAGGTCCTACTACAACAGCCACAACGTCTATATC [LPG10136 sgRNA L2 ; Library 2 target AGGACCTC]
- activity (% target strand cleaved) ([3]; 37C 120 min): 30.9

Sequence: GUCAUAGUUCCACUAAAGCCAUUAAAGAAUGGCUUUGAUGUUUCUAUGAUAAGGGUUUCGACCCGUGGCGUUGGGGAUCGCCUGCCCAUUUCGAUGGGCGUCUCCCCAUUU / GATATAGACGTTGTGGCTGTTGTAGTAGGACTTC / GAAGTCCTACTACAACAGCCACAACGTCTATATC [LPG10136 sgRNA L2 ; Library 2 target AGGACTTC]
- activity (% target strand cleaved) ([3]; suboptimal PAM context): 11.3

Sequence: GUCAUAGUUCCACUAAAGCCAUUAAAGAAUGGCUUUGAUGUUUCUAUGAUAAGGGUUUCGACCCGUGGCGUUGGGGAUCGCCUGCCCAUUUCGAUGGGCGUCUCCCCAUUU / GGACAGCAGCTTCCTATATCTCGTACAGGACCTC / GAGGTCCTGTACGAGATATAGGAAGCTGCTGTCC [LPG10136 sgRNA L1 ; Library 1 target AGGACCTC]
- activity (% target strand cleaved) ([3]; 37C 120 min): 5
